Test results from patent US10227388B2, “Peptides and combination of peptides for use in immunotherapy against non-small cell lung cancer and other cancers” (immatics biotechnologies GmbH, priority 2015, dated 2019).

What follows are substances tested against HLA-A*02:01 (Homo sapiens, UniProt P04439, D140Y/D185E/D98H/E176V/E277Q/G131W/G231S/I119V/I121R/I166T/I218V/L300P/L318F/N151K/N90K/P208A/P217A/Q86G/Q94H/R138H/R169H/T345S) (assay: MHC binding assay (UV-ligand exchange, ELISA, peptide exchange yield)). Settings: binding of HLA-class I restricted peptides to HLA-A*02:01.
Outline: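 Exchange yield was quantified as stabilized β2m-containing complex: monomers diluted 100-fold bound to streptavidin-coated wells, probed with HRP-conjugated anti-β2m, read at 450 nm after TMB. Complexes had been generated by UV cleavage of a photolabile ligand and replacement with the candidate peptide.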

Row | Substance | Peptide exchange (MHC class I binding score, peptide exchange yield)
1 | 584 (ALAEVAAMENV; listed as Homo sapiens) [compound 584] | ″+++″ (≥50% = +++)
2 | 42 (VLLQKIVSA; listed as Homo sapiens) [compound 42] | ″+++″ (≥50% = +++)
3 | 341 (SQIALNEKLVNL; listed as Homo sapiens) [compound 341] | ″+++″ (≥50% = +++)
4 | 595 (VLLSIYPRV; listed as Homo sapiens) [compound 595] | ″+++″ (≥50% = +++)
5 | 352 (SLLELLHIYV; listed as Homo sapiens) [compound 352] | ″+++″ (≥50% = +++)
6 | 343 (SLLEVNEESTV; listed as Homo sapiens) [compound 343] | ″+++″ (≥50% = +++)
7 | 336 (ILLTAIVQV; listed as Homo sapiens) [compound 336] | ″+++″ (≥50% = +++)
8 | 546 (VMIAGKVAVV; listed as Homo sapiens) [compound 546] | ″+++″ (≥50% = +++)
9 | 227 (ALMNTLLYL; listed as Homo sapiens) [compound 227] | ″++″ (≥20% = ++)
10 | 216 (NLWEDPYYL; listed as Homo sapiens) [compound 216] | ″+++″ (≥50% = +++)
11 | 397 (YLFGERLLEC; listed as Homo sapiens) [compound 397] | ″+++″ (≥50% = +++)
12 | 237 (ALLEASGTLLL; listed as Homo sapiens) [compound 237] | ″++++″ (≥75% = ++++)
13 | 95 (SVIPQIQKV; listed as Homo sapiens) [compound 95] | ″+++″ (≥50% = +++)
14 | 212 (ALWDQDNLSV; listed as Homo sapiens) [compound 212] | ″++″ (≥20% = ++)
15 | 278 (QLLDVVLTI; listed as Homo sapiens) [compound 278] | ″++″ (≥20% = ++)
16 | 185 (FLIDDKGYTL; listed as Homo sapiens) [compound 185] | ″++″ (≥20% = ++)
17 | 520 (LAVHPSGVAL; listed as Homo sapiens) [compound 520] | ″+″ (≥10% = +)
18 | 426 (RLADKSVLV; listed as Homo sapiens) [compound 426] | ″+++″ (≥50% = +++)
19 | 495 (FIFSEKPVFV; listed as Homo sapiens) [compound 495] | ″+++″ (≥50% = +++)
20 | 569 (KLVDRTWTL; listed as Homo sapiens) [compound 569] | ″+++″ (≥50% = +++)
21 | 13 (YLMDESLNL; listed as Homo sapiens) [compound 13] | ″+++″ (≥50% = +++)
22 | 541 (SMLEPVPEL; listed as Homo sapiens) [compound 541] | ″+++″ (≥50% = +++)

Row | Substance | Peptide exchange (MHC class I binding score, peptide exchange yield)
23 | 252 (LLIGTDVSL; listed as Homo sapiens) [compound 252] | ″+++″ (≥50% = +++)
24 | 279 (ALWGGTQPLL; listed as Homo sapiens) [compound 279] | ″++″ (≥20% = ++)
25 | 190 (FLSSLTETI; listed as Homo sapiens) [compound 190] | ″+++″ (≥50% = +++)
26 | 348 (ILLDVKTRL; listed as Homo sapiens) [compound 348] | ″++++″ (≥75% = ++++)
27 | 316 (ILLERLWYV; listed as Homo sapiens) [compound 316] | ″+++″ (≥50% = +++)
28 | 266 (KITDTLIHL; listed as Homo sapiens) [compound 266] | ″+++″ (≥50% = +++)
29 | 544 (LLWDVPAPSL; listed as Homo sapiens) [compound 544] | ″+++″ (≥50% = +++)
30 | 610 (LLAPTPYIIGV; listed as Homo sapiens) [compound 610] | ″+++″ (≥50% = +++)
31 | 380 (TLIEDEIATI; listed as Homo sapiens) [compound 380] | ″++″ (≥20% = ++)
32 | 20 (RMIEYFIDV; listed as Homo sapiens) [compound 20] | ″+++″ (≥50% = +++)
33 | 130 (FLWNGEDSALL; listed as Homo sapiens) [compound 130] | ″+++″ (≥50% = +++)
34 | 147 (SLLEAVSFL; listed as Homo sapiens) [compound 147] | ″+++″ (≥50% = +++)
35 | 506 (KLLGKVETA; listed as Homo sapiens) [compound 506] | ″+++″ (≥50% = +++)
36 | 567 (SLLPLDDIVRV; listed as Homo sapiens) [compound 567] | ″+++″ (≥50% = +++)
37 | 542 (RVWDISTVSSV; listed as Homo sapiens) [compound 542] | ″+++″ (≥50% = +++)
38 | 509 (FLFDTKPLIV; listed as Homo sapiens) [compound 509] | ″+++″ (≥50% = +++)
39 | 116 (YHIDEEVGF; listed as Homo sapiens) [compound 116] | ″+″ (≥10% = +)
40 | 635 (SLDSTLHAV; listed as Homo sapiens) [compound 635] | ″+++″ (≥50% = +++)
41 | 455 (SLLKEPQKVQL; listed as Homo sapiens) [compound 455] | ″++″ (≥20% = ++)
42 | 427 (ALLPLSPYL; listed as Homo sapiens) [compound 427] | ″+++″ (≥50% = +++)
43 | 153 (FLIANVLYL; listed as Homo sapiens) [compound 153] | ″+″ (≥10% = +)
44 | 40 (TLLVKVFSV; listed as Homo sapiens) [compound 40] | ″+++″ (≥50% = +++)

Row | Substance | Peptide exchange (MHC class I binding score, peptide exchange yield)
45 | 17 (GLLPGDRLVSV; listed as Homo sapiens) [compound 17] | ″+++″ (≥50% = +++)
46 | 178 (ALTEIAFVV; listed as Homo sapiens) [compound 178] | ″++++″ (≥75% = ++++)
47 | 365 (YVIDQGETDVYV; listed as Homo sapiens) [compound 365] | ″+++″ (≥50% = +++)
48 | 122 (FLLAEDDIYL; listed as Homo sapiens) [compound 122] | ″+++″ (≥50% = +++)
49 | 228 (AMQEYIAVV; listed as Homo sapiens) [compound 228] | ″++″ (≥20% = ++)
50 | 151 (KILQQLVTL; listed as Homo sapiens) [compound 151] | ″+++″ (≥50% = +++)
51 | 328 (ALNDQVFEI; listed as Homo sapiens) [compound 328] | ″+++″ (≥50% = +++)
52 | 276 (ALFTFSPLTV; listed as Homo sapiens) [compound 276] | ″+++″ (≥50% = +++)
53 | 374 (FLLQQHLISA; listed as Homo sapiens) [compound 374] | ″++″ (≥20% = ++)
54 | 539 (ALFDAQAQV; listed as Homo sapiens) [compound 539] | ″+++″ (≥50% = +++)
55 | 400 (SLLTEQDLWTV; listed as Homo sapiens) [compound 400] | ″++″ (≥20% = ++)
56 | 29 (KMLGIPISNILMV; listed as Homo sapiens) [compound 29] | ″+++″ (≥50% = +++)
57 | 608 (SLLSVSHAL; listed as Homo sapiens) [compound 608] | ″+++″ (≥50% = +++)
58 | 131 (FVPPVTVFPSL; listed as Homo sapiens) [compound 131] | ″++″ (≥20% = ++)
59 | 428 (KLGHTDILVGV; listed as Homo sapiens) [compound 428] | ″++″ (≥20% = ++)
60 | 197 (ALGPEGGRV; listed as Homo sapiens) [compound 197] | ″++″ (≥20% = ++)
61 | 395 (ALALGGIAVV; listed as Homo sapiens) [compound 395] | ″++++″ (≥75% = ++++)
62 | 54 (SLLEQGKEPWMV; listed as Homo sapiens) [compound 54] | ″+++″ (≥50% = +++)
63 | 218 (SALEELVNV; listed as Homo sapiens) [compound 218] | ″++″ (≥20% = ++)
64 | 597 (KLLEGQVIQL; listed as Homo sapiens) [compound 597] | ″+++″ (≥50% = +++)
65 | 555 (YVLEGLKSV; listed as Homo sapiens) [compound 555] | ″+++″ (≥50% = +++)
66 | 135 (ALSEVDFQL; listed as Homo sapiens) [compound 135] | ″+++″ (≥50% = +++)
